Source: article PMC10681803, “Dynamic ParB–DNA interactions initiate and maintain a partition condensate for bacterial chromosome segregation” (Nucleic Acids Research, 2023)

Key:
[1] = biological target: the molecule itself; assay: single-molecule fluorescence DNA-stretching assay (HiLo/TIRF microscopy); 42 kb DNA with a single parS tethered at both ends, SxG stain; 0.3 nM ParB^TMR in imaging buffer (40 mM Tris-HCl, 65 mM KCl, 2.5 mM MgCl2, 1 mM CTP); both ParB dimers loaded on the DNA
[2] = biological target: the molecule itself; assay: cross-linking; BMOE (1 mM) cysteine cross-linking of ParB^S278C at 10 uM in storage buffer (50 mM Tris-HCl pH 7.5, 300 mM NaCl) without DNA, quenched with DTT, 12% SDS-PAGE
[3] = biological target: the molecule itself; assay: cross-linking; BMOE cysteine cross-linking of ParB^T22C [2 uM] with ~200 bp DNA with parS [2 uM] and 1 mM CTP, room temperature, quenched with DTT, 12% SDS-PAGE

B1: TMR-labelled Bacillus subtilis ParB L5C (natural protein, UniProt P26497 1-282, looked up)
chain: MAKGCGKGINALFNQVDLSEETVEEIKIADLRPNPYQPRKHFDDEALAELKESVLQHGILQPLIVRKSLKGYDIVAGERRFRAAKLAGLDTVPAIVRELSEALMREIALLENLQREDLSPLEEAQAYDSLLKHLDLTQEQLAKRLGKSRPHIANHLRLLTLPENIQQLIAEGTLSMGHGRTLLGLKNKNKLEPLVQKVIAEQLNVRQLEQLIQQLNQNVPRETKKKEPVKDAVLKERESYLQNYFGTTVNIKRQKKKGKIEIEFFSNEDLDRILELLSERES
modifications: TMR-maleimide label on the ParB^L5C variant (labelling efficiency 70% of monomers)
notes: ParB (Spo0J) of Bacillus subtilis with L5C, expressed untagged; Untagged; also called ParB^TMR; source: E. coli BL21-Gold (DE3), purified (ammonium sulfate, Heparin, HiTrap SP, Superdex 200), labelled with TMR-maleimide
[1]
  binding result: binds

B2: Bacillus subtilis ParB S278C (natural protein, UniProt P26497 1-282, looked up)
chain: MAKGLGKGINALFNQVDLSEETVEEIKIADLRPNPYQPRKHFDDEALAELKESVLQHGILQPLIVRKSLKGYDIVAGERRFRAAKLAGLDTVPAIVRELSEALMREIALLENLQREDLSPLEEAQAYDSLLKHLDLTQEQLAKRLGKSRPHIANHLRLLTLPENIQQLIAEGTLSMGHGRTLLGLKNKNKLEPLVQKVIAEQLNVRQLEQLIQQLNQNVPRETKKKEPVKDAVLKERESYLQNYFGTTVNIKRQKKKGKIEIEFFSNEDLDRILELLCERES
notes: ParB (Spo0J) of Bacillus subtilis with S278C, expressed untagged; Untagged; C278 of the two chains is cross-linked by BMOE at the C-terminus; source: E. coli BL21-Gold (DE3), purified
[2]
  binding result: binds

B3: Bacillus subtilis ParB T22C (natural protein, UniProt P26497 1-282, looked up)
chain: MAKGLGKGINALFNQVDLSEECVEEIKIADLRPNPYQPRKHFDDEALAELKESVLQHGILQPLIVRKSLKGYDIVAGERRFRAAKLAGLDTVPAIVRELSEALMREIALLENLQREDLSPLEEAQAYDSLLKHLDLTQEQLAKRLGKSRPHIANHLRLLTLPENIQQLIAEGTLSMGHGRTLLGLKNKNKLEPLVQKVIAEQLNVRQLEQLIQQLNQNVPRETKKKEPVKDAVLKERESYLQNYFGTTVNIKRQKKKGKIEIEFFSNEDLDRILELLSERES
notes: ParB (Spo0J) of Bacillus subtilis with T22C, expressed untagged; Untagged; C22 of the two chains is cross-linked by BMOE in the N-terminally closed clamp; source: E. coli BL21-Gold (DE3), purified
[3]
  binding result: binds
